Consider one molecule from patent publication US20160271142A1 (CELLERANT THERAPEUTICS, published 2016).

Experiment [1] has as its target T1, C type Lectin Like molecule 1 (CLL-1), on human cell lines (human, UniProt Q5QGZ9 1-265).
T1 construct: whole, on cells; The target was presented on cells, either endogenously (HL-60, AML-5) or in over-expressing lines (TF1-CLL1, HEL92.1.7-CLL1); also called CLEC12A; DCAL-2
T1 sequence (looked up): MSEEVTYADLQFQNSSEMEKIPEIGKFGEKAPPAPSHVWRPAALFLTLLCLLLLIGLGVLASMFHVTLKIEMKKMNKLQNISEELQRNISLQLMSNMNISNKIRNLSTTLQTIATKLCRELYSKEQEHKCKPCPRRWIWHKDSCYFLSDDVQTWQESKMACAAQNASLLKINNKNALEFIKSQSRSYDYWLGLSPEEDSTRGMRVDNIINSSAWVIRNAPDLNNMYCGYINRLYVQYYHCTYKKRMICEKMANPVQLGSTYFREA
Kind of experiment: mean fluorescent intensity of ADC binding to PL21 cells, relative to control C0-CLT-D202 ADC; CLL-1 status of this line not stated.

For experiment [2], the target named is T1, C type Lectin Like molecule 1 (CLL-1), …. Kind of experiment: mean fluorescent intensity of ADC binding to HNT-34 cells, relative to control C0-CLT-D202 ADC; CLL-1 status of this line not stated.
Experiment [3] has the same target. As to the kind of experiment: mean fluorescent intensity of ADC binding to AML5 cells (express CLL-1), relative to control C0-CLT-D202 ADC.
The target is the same in experiment [4]. As to the kind of experiment: cell-based or functional assay.
Experiment [5] shares this target. As to the kind of experiment: mean fluorescent intensity of ADC binding to KG-1a cells, relative to control C0-CLT-D202 ADC; CLL-1 status of this line not stated.
For experiment [6] the target is unchanged. Kind of experiment: mean fluorescent intensity of ADC binding to U937 cells, relative to control C0-CLT-D202 ADC; CLL-1 status of this line not stated.
For experiment [7] the target is unchanged. As to the kind of experiment: mean fluorescent intensity of ADC binding to HEL92.1.7-CLL1 cells, relative to control C0-CLT-D202 ADC.
Experiment [8] shares this target. As to the kind of experiment: mean fluorescent intensity of ADC binding to AML2 cells, relative to control C0-CLT-D202 ADC; CLL-1 status of this line not stated.
Experiment [9] shares this target. Kind of experiment: cell-based or functional assay. The source holds these as a separate data set.
For experiment [10] the target is unchanged. Kind of experiment: mean fluorescent intensity of ADC binding to EOL-1 cells, relative to control C0-CLT-D202 ADC; CLL-1 status of this line not stated.
The target is the same in experiment [11]. As to the kind of experiment: mean fluorescent intensity of ADC binding to parental HEL92.1.7 cells, relative to control C0-CLT-D202 ADC; CLL-1 status of this line not stated.
Experiment [12] shares this target. Kind of experiment: mean fluorescent intensity of ADC binding to 293 cells, relative to control C0-CLT-D202 ADC; CLL-1 status of this line not stated.
Experiment [13] has the same target. As to the kind of experiment: mean fluorescent intensity of ADC binding to HL-60 cells (express CLL-1), relative to control C0-CLT-D202 ADC.
The target is the same in experiment [14]. As to the kind of experiment: mean fluorescent intensity of ADC binding to SHI-1 cells, relative to control C0-CLT-D202 ADC; CLL-1 status of this line not stated.
Experiment [15] has the same target. Kind of experiment: cell-based or functional assay. This is another data set of the same source.

B1: C6-CLT-D202 ADC (humanized anti-CLL1 antibody C6-S239C-CYSMAB, cys-substituted at position 239, conjugated to CLT-D202) (antibody, V domains shown)
VH: EVQLVQSGAEVKKPGASVKMSCKASGYTFTSYFIHWVRQAPGQGLEWIGFINPYNDGSKYAQKFQGRATLTSDKSTSTVYMELSSLRSEDTAVYYCTRDDGYYGYAMDYWGQGTLVTVSS
VL: DIQMTQSPSSLSASVGDRVTLTCRATQELSGYLSWLQQKPGKAIKRLIYAASTLDSGVPSRFSGNRAGTDYTLTISSLQPEDFATYYCLQYAIYPYTFGQGTKLEIK
modifications: CLT-D202 (maleimide linker-drug) on the engineered cysteine at position 239 (S239C) of the heavy chain constant region; drug to antibody ratio 1.7
As to B1, the “C6 relative MFI C6/C0” value was 14.7 ratio in experiment [1]; 5.8 ratio in experiment [2]; 15 ratio in experiment [3]; 1.3 ratio in experiment [5]; 14.7 ratio in [6]; 26.1 ratio in experiment [7]. In addition, the “C6 relative MFI C6/C0” value in experiment [8] is 13 ratio; in experiment [10], 20.5 ratio; in [11] it was 1.3 ratio; in [12], 1.2 ratio; in [13], 20 ratio; in [14] it was 1.4 ratio. Besides, in [4], the “IC50 ug/mL, cell killing, TF1-CLL1 cells” value came to 0.008 µg/mL. The “IC50, killing of proliferating AML-5 cells” value in [9] was determined as 0.03 µg/mL. Besides, the “IC50, killing of quiescent AML-5 cells” value in experiment [9] came to 0.02 µg/mL. Further, the “decrease in IC50 of cell killing, TF1-CLL1 against TF1” value in experiment [9] is roughly 1000 fold. In addition, the “target dependent cell killing, HL-60 cells, relative to control C0-CLT-D202 ADC” value in experiment [9] was greater than 500 fold. In experiment [15], the “IC50 ng/mL, cell killing, AML5 cells” value came out at 13 ng/mL. The “IC50 ng/mL, cell killing, HEL92.1.7-CLL1 cells” value in experiment [15] was 17 ng/mL. Moreover, in experiment [15], the “IC50 ng/mL, cell killing, HL-60 cells” value was determined as 11 ng/mL.
